The test system of test [1] is diabetic model mouse C57BL/KsJ-db/db mice. Briefly: Oral glucose tolerance test. Type of test: in vivo. The following applies: for glucose tolerance ameliorating effect (blood glucose level after glucose loading): db/db mice fasted overnight, intravenous, mouse IP-10 6 μg/head, GLP-1 (7-36 Amide) 50 μg/head, 3 g/kg D-glucose orally, 0-135 minutes, FIGS. 2 and 3; for blood glucose levels at 90 minutes after glucose loading: db/db mice, intravenous mouse Mig or human I-TAC, versus solvent control group, FIG. 4. As to the method: In the test, diabetic model mouse C57BL/KsJ-db/db mice (male, SPF grade, 7-week old, Clea Japan) were fasted overnight from the day before testing, mouse IP-10 (PEPRO TECH) or GLP-1 (7-36 Amide) (Peptide Institute), previously dried, was dissolved in physiological saline (Otsuka Pharmaceutical), and intravenous administration was conducted (6 μg/head; n=4 for IP-10, 50 μg/head; n=4 for GLP-1). For a solvent control group, physiological saline (Otsuka Pharmaceutical) was used (n=4). After intravenous administration, 3 g/kg of D-glucose was orally administered. Before glucose loading (0 minute) and 15, 45, 90 and 135 minutes after glucose loading, blood was collected from the caudal vein, and blood glucose levels were measured in accordance with the method described below.
That is, 10 μl of blood was collected and mixed with 100 μL of 0.4 N perchloric acid, further 50 μL of 0.37 M potassium carbonate was added, and the supernatant after centrifugation was analyzed using the Glucose CII•Test Wako (glucose quantitation kit, mutarotase•GOD method, Wako Pure Chemicals) to determine the blood glucose level.
Also for Mig and I-TAC, which are CXCR3 ligands other than IP-10, mouse Mig or human I-TAC (both manufactured by BIOCARTA), previously dried, was dissolved in physiological saline (Otsuka Pharmaceutical), intravenous administration was conducted, and glucose tolerance ameliorating action was evaluated by the same technique.

Another test concerns the target human CXCR3 (human) (UniProt P49682). Description: cell-based or functional assay.
Test [2] has as its system CHO/Gqi5 cell line incorporating an empty vector (pcDNA3.1). Description: Calcium signaling using FLIPR, CHO/Gqi5 cells transfected with control pcDNA3.1 (empty vector). It counts as cell-based. The following applies: control pcDNA3.1 transfected CHO/Gqi5 cells; human ligands, 300 ng/ml; FIG. 5. The method, then: (§1) CHO/Gqi5 cells, at 2×10^4 cells/well, were sown to a 96-well Black bottom clear plate (Corning), and cultured in the absence of antibiotics in a CO2 incubator for 24 hours. 50 ng of pcDNA3.1/Zeo-CXCR3 or pcDNA3.1 was diluted in 5 μl of OPTI-MEM, and 0.3 μl of LipofectAmine was diluted in 5 μl of OPTI-MEM. Both were mixed and allowed to stand at room temperature for 30 minutes, after which 40 μl of a serum-free F12 medium was added, and the mixture was added to wells once washed with a serum-free F12 medium. After cultivation in a CO2 incubator for 4 hours, the medium was replaced with a 10% FBS-supplemented F12 medium (once washed), and the cells were cultured in a CO2 incubator for 24 hours and subjected to a measurement using FLIPR®.
(§2) The cells recovered from each well were sown to a 96-well Black bottom clear plate (Corning). When cell counting was possible, the cells were sown at 2×10^4 cells/well. Next day, the medium was removed, 50 μl of an H/H/F/PB solution containing 2 μM Fluo-3-AM and 0.02% Pluronic acid was added, and cultivation was conducted in a CO2 incubator for 1 hour. […]

The target in test [3] is T1, CXCR3 (Homo sapiens, UniProt P49682).
T1 sequence (P49682 1-368): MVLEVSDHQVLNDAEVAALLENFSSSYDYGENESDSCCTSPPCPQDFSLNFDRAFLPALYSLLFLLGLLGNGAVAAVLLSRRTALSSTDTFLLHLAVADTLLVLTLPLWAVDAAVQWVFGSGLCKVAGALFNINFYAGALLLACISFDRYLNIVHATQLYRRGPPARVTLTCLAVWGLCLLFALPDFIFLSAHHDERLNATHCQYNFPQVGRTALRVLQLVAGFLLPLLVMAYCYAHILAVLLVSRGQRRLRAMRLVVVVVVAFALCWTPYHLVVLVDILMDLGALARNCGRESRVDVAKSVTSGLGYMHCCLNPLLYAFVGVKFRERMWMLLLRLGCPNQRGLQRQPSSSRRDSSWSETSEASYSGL
Description: Calcium signaling using FLIPR, CHO/Gqi5 cells transiently expressing CXCR3. Type of test: cell-based. Further details: prepared by amplifying the coding region of human CXCR3 by the PCR technique; expressed in transfected cells; host or cells: CHO/Gqi5 cells. Particulars: pcDNA3.1/Zeo-CXCR3 transiently transfected CHO/Gqi5 cells; human ligands, 300 ng/ml; FIG. 5. The method, then:
as §1, §2

The target of test [4] is T1, CXCR3. Description: Calcium signaling using FLIPR, CHO/Gqi5 line stably expressing CXCR3 (#122-17). Also on record: prepared by amplifying the coding region of human CXCR3 by the PCR technique; expressed in transfected cells; host or cells: CHO/Gqi5 cells. It counts as cell-based. The following applies: #122-17 line, FIG. 6; for concentration dependency of the response: human ligands at 100, 300, 1,000 ng/ml; for ligand concentration from which responsiveness could be confirmed: human ligands. The method, then: 1×10^6 cells were sown to a T25 flask, and cultured in a CO2 incubator for 24 hours. pcDNA3.1/Zeo-CXCR3 was cleaved with the restriction endonuclease SspI, and linearized at the vector portion. 2.5 μg of this plasmid DNA was diluted in 250 μl of OPTI-MEM, and 15 μl of LipofectAmine was diluted in 250 μl of OPTI-MEM. Both were mixed and allowed to stand at room temperature for 30 minutes, after which 2 ml of a serum-free F12 medium was added, and the mixture was added to a flask once washed with a serum-free F12 medium. After cultivation in a CO2 incubator for 4 hours, the medium was replaced with a 10% FBS-supplemented F12 medium (once washed), and cultivation was conducted in a CO2 incubator for 48 hours. The cells were recovered and sown to a 96-well plate at 1, 5 or 25 cells/well. At this time, Zeocin was added at 250 μg/ml. Three 96-well plates for each cell concentration, i.e., a total of nine plates, were cultured. About 20 days later, cells were recovered from the wells with evidence of cell proliferation, and sown to a 96-well Black bottom clear plate (Corning). Next day the plate was subjected to a measurement using FLIPR®, and selection of lines showing good ligand responsiveness was performed. For the lines showing good ligand responsiveness, recloning was performed. Each was selected at 0.1 cells/well on the 96-well plate, cells were recovered from the wells showing evidence of cell proliferation after about 20 days, and line selection was performed in the same manner as above.
The cells recovered from each well were sown to a 96-well Black bottom clear plate (Corning). When cell counting was possible, the cells were sown at 2×10^4 cells/well. Next day, the medium was removed, 50 μl of an H/H/F/PB solution containing 2 μM Fluo-3-AM and 0.02% Pluronic acid was added, and cultivation was conducted in a CO2 incubator for 1 hour. The medium was replaced with 100 μl of H/H/F/PB solution and heating was conducted in a CO2 incubator for 10 minutes, after which the plate was set to FLIPR® and further heated at 37° C. for 10 minutes, after which 25 μl of the ligand similarly heated at 37° C. was added using an injector, and a measurement of calcium signaling was conducted.
By the aforementioned method of (2)-2., pcDNA3.1/Zeo-CXCR3 was cleaved with the restriction endonuclease SspI and linearized at the vector portion. This was transfected to CHO/Gqi5 cells, and drug-resistant lines were selected using 250 μg/ml zeocin to obtain 156 drug-resistant lines. Next, for these resistant lines, responsiveness to IP-10 was confirmed using FLIPR®, and lines showing high ligand responsiveness (6 clones) were isolated. […]

Test [5] has as its target T1, CXCR3. Particulars: J. Biol. Chem., 273(29): 18288-18291 (1998); Eur. J. Immunol., 29 (1999); cited from earlier work.

Where no end group is shown, it is not given here.

Regarding “GLP-1 (7-36 Amide) (HAEGTFTSDVSSYLEGQAAKEFIAWLVKGR-NH2; UniProt P01275 98-127, looked up) [a kind of incretin known to act on the pancreas to promote insulin secretion (Peptide Institute), reference compound]”, the “glucose tolerance ameliorating effect (blood glucose level after glucose loading)” value in test [1] is “glucose tolerance ameliorating effect”.
As to “Human IP-10 (Peprotech) (from UniProt P02778 22-98) (ligand)”, the lowest ligand concentration giving a calcium response (FLIPR) in the CXCR3 stably expressing CHO/Gqi5 line #122-17 in the test with human CXCR3 (human) was 300 ng/mL.
Turning to “I-TAC: CXC chemokine, physiological ligand for CXCR3; human I-TAC”, in test [2], the “responsiveness to ligand (calcium signaling, fluorescence intensity)” value is “no response was detected”. Moreover, the “responsiveness to ligand (calcium signaling, fluorescence intensity)” value in the test with CXCR3 [3] was “a response was observed”. In addition, in test [1], the “blood glucose levels at 90 minutes after glucose loading” value is “decreased compared to the solvent control group”. In the test with CXCR3 [4], the “concentration dependency of the response” value is listed as “concentration dependency could be confirmed” and the “ligand concentration from which responsiveness could be confirmed” value is at least 100 ng/mL.
Turning to “IP-10: CXC chemokine, physiological ligand for CXCR3; mouse IP-10 (PEPRO TECH) in Example 1, human IP-10 (Peprotech) in Example 4”, the “responsiveness to ligand (calcium signaling, fluorescence intensity)” value in test [2] is “no response was detected”. The “responsiveness to ligand (calcium signaling, fluorescence intensity)” value with CXCR3 [3] is “a response was observed”. Also, in test [1], the “glucose tolerance ameliorating effect (blood glucose level after glucose loading)” value was “glucose tolerance ameliorating effect nearly equivalent, on a dose basis, to that of GLP-1”. For the same molecule, in the test with CXCR3 [4], the “concentration dependency of the response” value is given as “concentration dependency could be confirmed” and the “ligand concentration from which responsiveness could be confirmed” value was at least 300 ng/mL.
“MCP-3: CC chemokine known to weakly bind to CXCR3”: the “binding to CXCR3” value with CXCR3 [5] is reported as “weakly bind”.
Consider “MCP-4: CC chemokine known to weakly bind to CXCR3”, for which, in the test with CXCR3 [5], the “binding to CXCR3” value is “weakly bind”.
Consider “MIP-3a: CC chemokine known to weakly bind to CXCR3”, for which the “binding to CXCR3” value with CXCR3 [5] is “weakly bind”.
In the case of “RANTES: CC chemokine known to weakly bind to CXCR3”, the “binding to CXCR3” value in the test with CXCR3 [5] is “weakly bind”.
For the molecule “eotaxin: CC chemokine known to weakly bind to CXCR3”, the “binding to CXCR3” value with CXCR3 [5] is recorded as “weakly bind”.
Turning to “human I-TAC (G/T) (from UniProt O14625 22-94) (ligand)”, the lowest ligand concentration giving a calcium response (FLIPR) in the CXCR3 stably expressing CHO/Gqi5 line #122-17 in the test with human CXCR3 (human) was found to be 100 ng/mL.

B1: Mig: CXC chemokine, physiological ligand for CXCR3; mouse Mig (BIOCARTA) (protein, UniProt P18340 22-126, looked up)
C-X-C motif chemokine 9: TLVIRNARCSCISTSRGTIHYKSLKDLKQFAPSPNCNKTEIIATLKNGDQTCLDPDSANVKKLMKEWEKKISQKKKQKRGKKHQKNMKNRKPKTPQSRRRSRKTT
For the molecule B1, in test [1], the “blood glucose levels at 90 minutes after glucose loading” value is on record as “decreased compared to the solvent control group”.

B2: 6Ckine: CC chemokine known to weakly bind to CXCR3 (protein, UniProt O00585 24-134, looked up)
C-C motif chemokine 21: SDGGAQDCCLKYSQRKIPAKVVRSYRKQEPSLGCSIPAILFLPRKRSQAELCADPKELWVQQLMQHLDKTPSPQKPAQGCRKDRGASKTGKKGKGSKGCKRTERSQTPKGP
Turning to B2, the “binding to CXCR3” value with CXCR3 [5] was “weakly bind”.

The values above are taken from patent US20050119174A1, “Novel blood sugar controller and method of screening the same” (Sumitomo Pharmaceuticals Co. Ltd., priority 2002, published 2005).
